# Source: patent US20150196651A1 (published 2015)
# Numbered stars: 1 amine (or outer) side, 2 acyl side, 3 side chain; on linkers, the order of the positions; unused ones are H or OH. Square brackets hold non-standard residues; d marks the D form. Side chains are listed from the residue outwards. Ends that are not written are not given here. * marks the point of attachment. γGlu = O=C(O)[C@H](CCC(=O)[*:2])N[*:1]; Palmitoyl = CCCCCCCCCCCCCCCC(=O)*; Myristoyl = CCCCCCCCCCCCCC(=O)*; NMeA = CN[C@@H](C)C(=O)O
# T1: rat PrRP receptor in RC-4B/C cells (rat, UniProt Q64121 1-370)
# T1 construct: whole, on cells; endogenous receptor of RC-4B/C cells (ATCC); also called rat receptor; GPR10 receptor expressed in rat hypophyseal cells
# T1 sequence (looked up): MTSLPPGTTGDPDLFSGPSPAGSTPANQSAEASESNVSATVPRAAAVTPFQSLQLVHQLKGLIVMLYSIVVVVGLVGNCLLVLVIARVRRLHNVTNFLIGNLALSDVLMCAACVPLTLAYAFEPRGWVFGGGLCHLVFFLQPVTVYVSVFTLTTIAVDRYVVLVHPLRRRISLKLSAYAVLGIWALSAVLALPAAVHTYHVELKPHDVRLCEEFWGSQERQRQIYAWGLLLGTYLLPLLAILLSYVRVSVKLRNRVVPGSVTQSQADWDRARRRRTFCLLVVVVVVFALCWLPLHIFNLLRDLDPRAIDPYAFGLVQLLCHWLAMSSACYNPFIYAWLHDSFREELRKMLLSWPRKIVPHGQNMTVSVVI
# T2: human PrRP receptor GPR10 (human, UniProt P49683 1-370)
# T2 construct: whole, on cells; also called GPR10 human receptor transfected in CHO cells; human GPR10 receptor
# T2 sequence (looked up): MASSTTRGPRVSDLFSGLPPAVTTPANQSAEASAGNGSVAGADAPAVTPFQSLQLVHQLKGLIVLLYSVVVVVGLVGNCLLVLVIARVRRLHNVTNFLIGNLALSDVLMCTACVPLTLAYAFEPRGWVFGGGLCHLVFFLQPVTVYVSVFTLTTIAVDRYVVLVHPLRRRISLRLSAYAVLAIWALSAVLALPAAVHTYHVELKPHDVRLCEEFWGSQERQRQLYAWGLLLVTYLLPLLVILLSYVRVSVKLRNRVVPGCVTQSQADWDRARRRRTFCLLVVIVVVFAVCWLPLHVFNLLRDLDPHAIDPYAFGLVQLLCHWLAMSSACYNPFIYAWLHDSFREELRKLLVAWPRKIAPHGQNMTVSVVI
# B1: analog no. 29 (peptide)
# peptide: TPDINPAWY[NMeA]SRGIRPVGRF-NH2
# modifications: N-terminus assumed
# SMILES: CC[C@H](C)[C@H](NC(=O)CNC(=O)[C@H](CCCNC(=N)N)NC(=O)[C@H](CO)NC(=O)[C@H](C)N(C)C(=O)[C@H](Cc1ccc(O)cc1)NC(=O)[C@H](Cc1c[nH]c2ccccc12)NC(=O)[C@H](C)NC(=O)[C@@H]1CCCN1C(=O)[C@H](CC(N)=O)NC(=O)[C@@H](NC(=O)[C@H](CC(=O)O)NC(=O)[C@@H]1CCCN1C(=O)[C@@H](N)[C@@H](C)O)[C@@H](C)CC)C(=O)N[C@@H](CCCNC(=N)N)C(=O)N1CCC[C@H]1C(=O)N[C@H](C(=O)NCC(=O)N[C@@H](CCCNC(=N)N)C(=O)N[C@@H](Cc1ccccc1)C(N)=O)C(C)C
# B2: analog no. 32 (peptide)
# peptide: Myristoyl-TPDINPAWYTGRGARPFGRF-NH2
# SMILES: CCCCCCCCCCCCCC(=O)N[C@H](C(=O)N1CCC[C@H]1C(=O)N[C@@H](CC(=O)O)C(=O)N[C@H](C(=O)N[C@@H](CC(N)=O)C(=O)N1CCC[C@H]1C(=O)N[C@@H](C)C(=O)N[C@@H](Cc1c[nH]c2ccccc12)C(=O)N[C@@H](Cc1ccc(O)cc1)C(=O)N[C@H](C(=O)NCC(=O)N[C@@H](CCCNC(=N)N)C(=O)NCC(=O)N[C@@H](C)C(=O)N[C@@H](CCCNC(=N)N)C(=O)N1CCC[C@H]1C(=O)N[C@@H](Cc1ccccc1)C(=O)NCC(=O)N[C@@H](CCCNC(=N)N)C(=O)N[C@@H](Cc1ccccc1)C(N)=O)[C@@H](C)O)[C@@H](C)CC)[C@@H](C)O
# B3: analog no. 34 (peptide)
# peptide: Myristoyl-TPDINPAWYASRPFRPVGRF-NH2
# SMILES: CCCCCCCCCCCCCC(=O)N[C@H](C(=O)N1CCC[C@H]1C(=O)N[C@@H](CC(=O)O)C(=O)N[C@H](C(=O)N[C@@H](CC(N)=O)C(=O)N1CCC[C@H]1C(=O)N[C@@H](C)C(=O)N[C@@H](Cc1c[nH]c2ccccc12)C(=O)N[C@@H](Cc1ccc(O)cc1)C(=O)N[C@@H](C)C(=O)N[C@@H](CO)C(=O)N[C@@H](CCCNC(=N)N)C(=O)N1CCC[C@H]1C(=O)N[C@@H](Cc1ccccc1)C(=O)N[C@@H](CCCNC(=N)N)C(=O)N1CCC[C@H]1C(=O)N[C@H](C(=O)NCC(=O)N[C@@H](CCCNC(=N)N)C(=O)N[C@@H](Cc1ccccc1)C(N)=O)C(C)C)[C@@H](C)CC)[C@@H](C)O
# B4: analog no. 1 (peptide)
# peptide: Myristoyl-TPDINPAWYTGRGIRPVGRF-NH2
# SMILES: CCCCCCCCCCCCCC(=O)N[C@H](C(=O)N1CCC[C@H]1C(=O)N[C@@H](CC(=O)O)C(=O)N[C@H](C(=O)N[C@@H](CC(N)=O)C(=O)N1CCC[C@H]1C(=O)N[C@@H](C)C(=O)N[C@@H](Cc1c[nH]c2ccccc12)C(=O)N[C@@H](Cc1ccc(O)cc1)C(=O)N[C@H](C(=O)NCC(=O)N[C@@H](CCCNC(=N)N)C(=O)NCC(=O)N[C@H](C(=O)N[C@@H](CCCNC(=N)N)C(=O)N1CCC[C@H]1C(=O)N[C@H](C(=O)NCC(=O)N[C@@H](CCCNC(=N)N)C(=O)N[C@@H](Cc1ccccc1)C(N)=O)C(C)C)[C@@H](C)CC)[C@@H](C)O)[C@@H](C)CC)[C@@H](C)O
# B5: analog no. 42 (peptide)
# peptide: Myristoyl-SRTHRHSMEIRTPDINPAWYASRGIRPVGRF-NH2
# SMILES: CCCCCCCCCCCCCC(=O)N[C@@H](CO)C(=O)N[C@@H](CCCNC(=N)N)C(=O)N[C@H](C(=O)N[C@@H](Cc1c[nH]cn1)C(=O)N[C@@H](CCCNC(=N)N)C(=O)N[C@@H](Cc1c[nH]cn1)C(=O)N[C@@H](CO)C(=O)N[C@@H](CCSC)C(=O)N[C@@H](CCC(=O)O)C(=O)N[C@H](C(=O)N[C@@H](CCCNC(=N)N)C(=O)N[C@H](C(=O)N1CCC[C@H]1C(=O)N[C@@H](CC(=O)O)C(=O)N[C@H](C(=O)N[C@@H](CC(N)=O)C(=O)N1CCC[C@H]1C(=O)N[C@@H](C)C(=O)N[C@@H](Cc1c[nH]c2ccccc12)C(=O)N[C@@H](Cc1ccc(O)cc1)C(=O)N[C@@H](C)C(=O)N[C@@H](CO)C(=O)N[C@@H](CCCNC(=N)N)C(=O)NCC(=O)N[C@H](C(=O)N[C@@H](CCCNC(=N)N)C(=O)N1CCC[C@H]1C(=O)N[C@H](C(=O)NCC(=O)N[C@@H](CCCNC(=N)N)C(=O)N[C@@H](Cc1ccccc1)C(N)=O)C(C)C)[C@@H](C)CC)[C@@H](C)CC)[C@@H](C)O)[C@@H](C)CC)[C@@H](C)O
# B6: analog no. 54 (peptide)
# peptide: SRTHRHSMEIRTPDINPAWYASRGIRPVGRF
# modifications: (N-palm)γ-E at the N-terminus (palmitoyl through gamma-glutamic acid); C-terminal amide
# B7: analog no. 30 (peptide)
# peptide: Myristoyl-TPDINPAWY[NMeA]SRGIRPVGRF-NH2
# SMILES: CCCCCCCCCCCCCC(=O)N[C@H](C(=O)N1CCC[C@H]1C(=O)N[C@@H](CC(=O)O)C(=O)N[C@H](C(=O)N[C@@H](CC(N)=O)C(=O)N1CCC[C@H]1C(=O)N[C@@H](C)C(=O)N[C@@H](Cc1c[nH]c2ccccc12)C(=O)N[C@@H](Cc1ccc(O)cc1)C(=O)N(C)[C@@H](C)C(=O)N[C@@H](CO)C(=O)N[C@@H](CCCNC(=N)N)C(=O)NCC(=O)N[C@H](C(=O)N[C@@H](CCCNC(=N)N)C(=O)N1CCC[C@H]1C(=O)N[C@H](C(=O)NCC(=O)N[C@@H](CCCNC(=N)N)C(=O)N[C@@H](Cc1ccccc1)C(N)=O)C(C)C)[C@@H](C)CC)[C@@H](C)CC)[C@@H](C)O
# Key:
# [1] = target: T1, rat PrRP receptor in RC-4B/C cells; test: competition with 125I-rat PrRP31, RC-4B/C cells
# Protocol: The rat pituitary cell line RC-4B/C (ATCC, Manassas, USA) was grown on 24-well plates which had their bottom coated with polyethyleneimine. The cells were grown to the optimal density of 300-450 thousand cells per well.
# (§1) Plates were incubated for 60 minutes at room temperature. After incubation, the cells were solubilized in 0.1 mol/l solution of NaOH, and the radioactivity bound to the cells was counted using a γ-counter. The experiments were performed in duplicate, and repeated at least three times.
# [2] = target: T2, human PrRP receptor GPR10; test: competition with 125I-human PrRP31, CHO cells with human GPR10
# Protocol: CHO cells transfected with human PrRP receptor GPR10 (Perkin Elmer, USA) were grown on 24-well plates coated with polyethyleneimine. […] The following agents were used for the experiment: binding buffer (25 mmol.1⁻¹ Tris, pH 7.4; 118 mmol.1⁻¹ NaCl, 10 mmol.1⁻¹ MgCl₂, 1 mmol.1⁻¹ CaCl₂, 5.5 mmol.1⁻¹ glucose, 0.5 mg/ml BSA), unlabeled analogs of PrRP (i.e. the analog being tested) at a final concentration between 10⁻¹¹ to 10⁻⁴ mol.1⁻¹, and radiolabeled human ¹²⁵1-PrRP31 at a final concentration of 5×10⁻¹¹ mol.1⁻¹.
# as §1
binder,measurement,setting,value
B1,% of PrRP31,[1],10%
same,Ki,[1],49.4 nM
same,% of PrRP31,[2],45%
same,Ki,[2],8.72 nM
TPDINPAWYTGRGIRPVGRF-NH2 (synthetic peptide) [Rat PrRP20],% of PrRP31,[1],143%
same,Ki,[1],3.44 nM
same,% of PrRP31,[2],70%
same,Ki,[2],5.56 nM
B2,% of PrRP31,[1],68%
same,Ki,[1],7.21 nM
same,% of PrRP31,[2],46%
same,Ki,[2],8.47 nM
TPDINPAWYTGRGARPFGRF-NH2 [analog no. 31],% of PrRP31,[1],0.8%
same,Ki,[1],655 nM
same,% of PrRP31,[2],0.7%
same,Ki,[2],583 nM
TPDINPAWYASRPFRPVGRF-NH2 [analog no. 33],% of PrRP31,[1],230%
same,Ki,[1],2.14 nM
same,% of PrRP31,[2],225%
same,Ki,[2],1.73 nM
B3,% of PrRP31,[1],587%
same,Ki,[1],0.84 nM
same,% of PrRP31,[2],671%
same,Ki,[2],0.58 nM
B4,% of PrRP31,[1],632%
same,Ki,[1],0.78 nM
same,% of PrRP31,[2],133%
same,Ki,[2],2.93 nM
SRTHRHSMEIK([γGlu-Palmitoyl])TPDINPAWYASRGIRPVGRF-NH2 (also called compound 52) [analog no. 52],% of PrRP31,[1],57%
same,Ki,[1],4.23 nM
same,% of PrRP31,[2],65%
same,Ki,[2],5.95 nM
SRTHRHSMEIRTPDINPAWYASRGIRPVGRF-NH2 (synthetic peptide) [Human PrRP31],% of PrRP31,[1],207%
same,Ki,[1],2.38 nM
same,% of PrRP31,[2],86%
SETHRHSMEIKTPDINPAWYASRGIRPVGRF (K(N-POE(N-palm)) at residue 11; C-terminal amide) [analog no. 58],% of PrRP31,[1],575%
same,Ki,[1],0.41 nM
same,% of PrRP31,[2],103%
same,Ki,[2],3.79 nM
B5,% of PrRP31,[1],1030%
same,Ki,[1],0.48 nM
same,% of PrRP31,[2],83%
B6,% of PrRP31,[1],119%
same,Ki,[1],0.5 nM
same,% of PrRP31,[2],57%
B7,% of PrRP31,[1],1070%
same,Ki,[1],0.46 nM
same,% of PrRP31,[2],185%
same,Ki,[2],2.1 nM
